Molecular target: CD3ε on wildtype primary human T cells (human) (UniProt P07766)
Test: cell-based or functional assay

CAR4 (CD3ε.CD8α.4-1BB.CD3ζ), myc-tagged second-generation CAR with the OKT3 scFv, expressed on NK-92 cells, sequence (chain): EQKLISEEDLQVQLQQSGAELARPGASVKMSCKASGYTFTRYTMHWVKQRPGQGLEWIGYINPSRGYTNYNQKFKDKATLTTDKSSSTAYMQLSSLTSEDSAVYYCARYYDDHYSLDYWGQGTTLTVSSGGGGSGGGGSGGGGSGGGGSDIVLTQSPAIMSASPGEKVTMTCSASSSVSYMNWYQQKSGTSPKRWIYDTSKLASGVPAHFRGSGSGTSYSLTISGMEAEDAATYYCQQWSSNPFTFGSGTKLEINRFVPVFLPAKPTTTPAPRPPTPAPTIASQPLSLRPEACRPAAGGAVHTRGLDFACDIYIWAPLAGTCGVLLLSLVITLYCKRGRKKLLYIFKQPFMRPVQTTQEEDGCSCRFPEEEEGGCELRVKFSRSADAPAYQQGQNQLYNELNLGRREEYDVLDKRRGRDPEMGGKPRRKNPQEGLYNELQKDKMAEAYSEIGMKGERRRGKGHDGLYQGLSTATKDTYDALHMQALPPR

Question: “CAR4 (CD3ε.CD8α.4-1BB.CD3ζ), myc-tagged second-generation CAR with the OKT3 scFv, expressed on NK-92 cells” was tested. Which average residual TCR+ T cells after co-culture in G-Rex, regimen 1:2A did it give?
Answer: Its average residual TCR+ T cells after co-culture in G-Rex, regimen 1:2A is 0.026%.

Question: And the average residual TCR+ T cells after co-culture in G-Rex, regimen 1:2B?
Answer: Its average residual TCR+ T cells after co-culture in G-Rex, regimen 1:2B is 0.007%.

Question: What about the removal of residual wildtype T cells, 2 co-culture cycles of the same substance?
Answer: Its removal of residual wildtype T cells, 2 co-culture cycles is greater than 99.9%.

Question: What about the removal of residual wildtype T cells, single administration of the same substance?
Answer: The removal of residual wildtype T cells, single administration was 98.6%.

— patent publication US20260130994A1
